Patent US20240116985A1 (published 2024)
Starred links: 1 amine or outer side, 2 acyl side, 3 side chain; linkers in the order of their positions; H or OH if unused. Positions of bridges follow the written chain, without caps; N, C: chain ends. Non-standard residues stand in square brackets, D forms with d. Primed or numbered codes have the meaning given here. PyrS2″ = (S)-3-amino-1-((pent-4-en-1-yloxy)carbonyl)pyrrolidine-3-carboxylic acid (stapling residue), C=CCCCOC(=O)N1CC[C@@](N[*:1])(C(=O)[*:2])C1; B5(16) = 2-amino-2-(pent-4-en-1-yl)hept-6-enoic acid = 2,2-bis(4-pentenyl)glycine (stitching residue), C=CCCCC(CCCC=C)(N[*:1])C(=O)[*:2]; (CH2CO2H)TriAzDap = (S)-2-amino-3-(4-(carboxymethyl)-1H-1,2,3-triazol-1-yl)propanoic acid, O=C([C@H](Cn1cc(CC(=O)[*:3])nn1)N[*:1])[*:2]; B5(4) = 2,2-bis(4-pentenyl)glycine = 2-amino-2-(pent-4-en-1-yl)hept-6-enoic acid (stitching residue), C=CCCCC(CCCC=C)(N[*:1])C(=O)[*:2]; B5(5) = 2,2-bis(4-pentenyl)glycine, 2-amino-2-(pent-4-en-1-yl)hept-6-enoic acid (stitching residue), C=CCCCC(CCCC=C)(N[*:1])C(=O)[*:2]; B5(9) = 2-amino-2-(pent-4-en-1-yl)hept-6-enoic acid (2,2-bis(4-pentenyl)glycine), C=CCCCC(CCCC=C)(N[*:1])C(=O)[*:2]; B5(19) = 2-amino-2-(pent-4-en-1-yl)hept-6-enoic acid (bis(4-pentenyl)glycine), C=CCCCC(CCCC=C)(N[*:1])C(=O)[*:2]; Phe(3-COOH) = N[C@@H](Cc1cccc(C(=O)O)c1)C(=O)O; d(βAsp) = O=C(O)[C@@H](CC(=O)[*:2])N[*:1]; βAsp = O=C(O)[C@H](CC(=O)[*:2])N[*:1]; Bta = N[C@@H](Cc1csc2ccccc12)C(=O)O; αAllylPro = C=CC[C@@]1(C(=O)O)CCCN1; tBuAla = CC(C)(C)C[C@H](N)C(=O)O; 3Thi = N[C@@H](Cc1ccsc1)C(=O)O; S8 = C=CCCCCCC[C@](C)(N)C(=O)O; PyrS2(4) = not defined here

T1: full-length beta-Catenin (Uniprot ID P35222) (Homo sapiens (Human), UniProt P35222 2-781)
T1 construct: 'mature' is the nearest allowed form; also called bCat; B-Catenin
T1 sequence: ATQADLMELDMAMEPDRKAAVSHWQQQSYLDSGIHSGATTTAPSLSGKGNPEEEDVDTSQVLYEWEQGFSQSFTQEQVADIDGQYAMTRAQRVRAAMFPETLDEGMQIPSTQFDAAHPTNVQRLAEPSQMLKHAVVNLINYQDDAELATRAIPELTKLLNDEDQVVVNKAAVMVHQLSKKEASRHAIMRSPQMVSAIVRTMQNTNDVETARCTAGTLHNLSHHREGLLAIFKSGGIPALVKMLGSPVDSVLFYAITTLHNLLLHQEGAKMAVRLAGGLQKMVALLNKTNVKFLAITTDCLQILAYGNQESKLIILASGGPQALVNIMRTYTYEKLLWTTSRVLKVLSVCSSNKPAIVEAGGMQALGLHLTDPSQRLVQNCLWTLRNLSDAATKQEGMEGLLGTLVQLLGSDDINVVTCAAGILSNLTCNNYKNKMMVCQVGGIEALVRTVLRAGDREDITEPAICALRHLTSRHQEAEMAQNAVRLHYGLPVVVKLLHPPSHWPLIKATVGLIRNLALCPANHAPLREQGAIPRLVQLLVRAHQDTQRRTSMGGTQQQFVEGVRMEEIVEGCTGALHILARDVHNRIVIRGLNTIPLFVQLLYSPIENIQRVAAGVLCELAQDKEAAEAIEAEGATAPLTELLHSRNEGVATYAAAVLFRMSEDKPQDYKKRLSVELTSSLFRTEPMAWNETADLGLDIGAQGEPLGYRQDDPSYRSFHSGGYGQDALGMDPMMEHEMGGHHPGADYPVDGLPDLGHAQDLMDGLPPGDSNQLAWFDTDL

T2: Bcat-Halo (UniProt P35222 1-781)
T2 sequence (looked up): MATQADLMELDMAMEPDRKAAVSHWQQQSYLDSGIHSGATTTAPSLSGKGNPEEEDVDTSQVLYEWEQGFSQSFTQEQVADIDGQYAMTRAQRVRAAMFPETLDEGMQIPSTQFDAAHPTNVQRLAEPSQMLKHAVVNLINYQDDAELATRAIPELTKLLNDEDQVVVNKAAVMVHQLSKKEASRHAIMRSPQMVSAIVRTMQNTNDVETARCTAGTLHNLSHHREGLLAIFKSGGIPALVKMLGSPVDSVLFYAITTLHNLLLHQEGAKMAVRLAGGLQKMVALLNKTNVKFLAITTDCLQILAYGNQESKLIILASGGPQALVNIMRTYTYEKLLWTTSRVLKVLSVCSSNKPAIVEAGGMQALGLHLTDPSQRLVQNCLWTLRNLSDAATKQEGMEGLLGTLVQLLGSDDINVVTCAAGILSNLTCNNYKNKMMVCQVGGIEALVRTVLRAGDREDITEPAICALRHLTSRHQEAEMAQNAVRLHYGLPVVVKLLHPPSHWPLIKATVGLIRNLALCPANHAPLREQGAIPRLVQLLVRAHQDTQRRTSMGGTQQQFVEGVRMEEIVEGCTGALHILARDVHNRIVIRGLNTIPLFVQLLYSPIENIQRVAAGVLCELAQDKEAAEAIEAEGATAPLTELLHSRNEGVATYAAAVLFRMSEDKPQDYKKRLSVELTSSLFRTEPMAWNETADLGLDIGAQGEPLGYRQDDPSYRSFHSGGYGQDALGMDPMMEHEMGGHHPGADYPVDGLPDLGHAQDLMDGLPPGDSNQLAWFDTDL

B1: I-655 (peptide)
peptide: Ac-[αAllylPro]DI[B5(16)]DEWAFQ[S8]F[Bta]Q-NH2
modifications: staple 1-4, 4-11
notes: Stapled peptide composition
B2: I-665 (peptide)
peptide: Ac-[αAllylPro]DI[B5(9)]DEAWFQ[S8]F[Bta]Q-NH2
modifications: staple 1-4, 4-11
notes: Stapled peptide composition; later-eluting HPLC peak (staple isomer)
B3: I-663 (peptide)
peptide: Ac-[αAllylPro]DI[B5(19)]DEAQFQ[S8]F[Bta]Q-NH2
modifications: staple 1-4, 4-11
notes: Stapled peptide composition
B4: I-661 (peptide)
peptide: XDIXDEASFQXFXQ
modifications: not fully specified; As printed: Ac-PL3-Asp-Ile-B5-Asp-Glu-Ala-Ser-Phe-Gln-S8-Phe-BztA-Gln-NH2; N-terminal Ac; PL3 at 1, B5 at 4, S8 at 11 (stapled 1-4 and 4-11); BztA at 13; C-terminal NH2
notes: Stapled peptide composition; earlier-eluting HPLC peak (staple isomer)
B5: I-660 (peptide)
peptide: Ac-[αAllylPro]DI[B5(19)]DEAFFQ[S8]F[Bta]Q-NH2
modifications: staple 1-4, 4-11
notes: Stapled peptide composition
B6: I-659 (peptide)
peptide: XDIXDEALFQXFXQ
modifications: not fully specified; As printed: Ac-PL3-Asp-Ile-B5-Asp-Glu-Ala-Leu-Phe-Gln-S8-Phe-BztA-Gln-NH2; N-terminal Ac; PL3 at 1, B5 at 4, S8 at 11 (stapled 1-4 and 4-11); BztA at 13; C-terminal NH2
notes: as for B2
B7: I-664 (peptide)
peptide: Ac-[αAllylPro]DI[B5(9)]DEAWFQ[S8]F[Bta]Q-NH2
modifications: staple 1-4, 4-11
notes: as for B4
B8: I-662 (peptide)
peptide: XDIXDEASFQXFXQ
modifications: not fully specified; As printed: Ac-PL3-Asp-Ile-B5-Asp-Glu-Ala-Ser-Phe-Gln-S8-Phe-BztA-Gln-NH2; N-terminal Ac; PL3 at 1, B5 at 4, S8 at 11 (stapled 1-4 and 4-11); BztA at 13; C-terminal NH2
notes: as for B2
B9: I-658 (peptide)
peptide: XDIXDEALFQXFXQ
modifications: not fully specified; As printed: Ac-PL3-Asp-Ile-B5-Asp-Glu-Ala-Leu-Phe-Gln-S8-Phe-BztA-Gln-NH2; N-terminal Ac; PL3 at 1, B5 at 4, S8 at 11 (stapled 1-4 and 4-11); BztA at 13; C-terminal NH2
notes: as for B4
B10: I-669 (peptide)
peptide: Ac-[αAllylPro][d(βAsp)]I[B5(9)]DEAAFQ[S8]F[Bta]Q-NH2
modifications: staple 1-4, 4-11
notes: as for B2
B11: I-673 (peptide)
peptide: Ac-[αAllylPro]DI[B5(9)][βAsp]EAAFQ[S8]F[Bta]Q-NH2
modifications: staple 1-4, 4-11
notes: Stapled peptide composition
B12: I-674 (peptide)
peptide: Ac-[αAllylPro]DI[B5(5)][d(βAsp)]EAAFQ[S8]F[Bta]Q-NH2
modifications: staple 1-4, 4-11
notes: Stapled peptide composition
B13: I-2094 (peptide)
peptide: Ac-[αAllylPro]D[tBuAla][B5(4)]D[Phe(3-COOH)]AAFF[PyrS2(4)][3Thi][Bta][dA]-NH2
modifications: staple 1-4, 4-11; reading uncertain
B14: I-2090 (peptide)
peptide: Ac-[αAllylPro]D[tBuAla][B5(4)]D[Phe(3-COOH)]AAFL[PyrS2(4)][3Thi][Bta][dA]-NH2
modifications: staple 1-4, 4-11; reading uncertain
B15: I-2084 (peptide)
peptide: Ac-[αAllylPro]D[tBuAla][B5(4)]D[(CH2CO2H)TriAzDap]AAFL[PyrS2″][3Thi][Bta]Q-NH2
modifications: staple 1-4, 4-11

target: T1, full-length beta-Catenin (Uniprot ID …); assay: fluorescence polarization competition, full-length beta-catenin with 5FAM-TCF4(10-53) probe as competitor
Experimental: The plate was incubated protected from light for 60 minutes at 20° C. prior to read. Reads were performed on a CLARIOstar plate reader (BMG Labtech) in duplicate, and data were fitted to a 1:1 binding model with hill slope using an in-house script. All provided concentrations are final concentrations.

Point of comparison: B4, EC50 45 nM. Against it:
- B1 — 4.1-fold higher, 183 nM
- B2 — 21-fold higher, 923 nM
- B3 — within 1.5-fold, 43 nM
- B5 — 12-fold higher, 544 nM
- B6 — 9.6-fold higher, 430 nM
- B7 — 22-fold higher, 996 nM
- B8 — 1.7-fold lower, 26 nM
- B9 — 12-fold higher, 546 nM
- B10 — 10-fold higher, 451 nM
- B11 — 110-fold higher, 5000 nM
- B12 — 110-fold higher, 5000 nM

target: T2, Bcat-Halo; assay: cell-based or functional assay

Point of comparison: B14, “NanoBRET Abs IC50” value 5900 nM. Against it:
- B13 — 1.6-fold higher, 9700 nM
- B15 — 1.6-fold higher, 9200 nM
